Measured values: publication PMC9897555 (2023)

Molecular target: Spike protein S1 C-terminal domain 319-674 (Severe acute respiratory syndrome …, UniProt P0DTC2)
Experiment: flow

B1: LRRC15 (protein)
chain: YHGCPSECTCSRASQVECTGARIVAVPTPLPWNAMSLQILNTHITELNESPFLNISALIALRIEKNELSRITPGAFRNLGSLRYLSLANNKLQVLPIGLFQGLDSLESLLLSSNQLLQIQPAHFSQCSNLKELQLHGNHLEYIPDGAFDHLVGLTKLNLGKNSLTHISPRVFQHLGNLQVLRLYENRLTDIPMGTFDGLVNLQELALQQNQIGLLSPGLFHNNHNLQRLYLSNNHISQLPPSVFMQLPQLNRLTLFGNSLKELSPGIFGPMPNLRELWLYDNHISSLPDNVFSNLRQLQVLILSRNQISFISPGAFNGLTELRELSLHTNALQDLDGNVFRMLANLQNISLQNNRLRQLPGNIFANVNGLMAIQLQNNQLENLPLGIFDHLGKLCELRLYDNPWRCDSDILPLRNWLLLNQPRLGTDTVPVCFSPANVRGQSLIIINVNVAVPSVHVPEVPSYPETPWYPDTPSYPDTTSVSSTTELTSPVEDYTDLTTIQVTDDRSVWGMTQAQSG
With B1 the Kd was about 260 nM.
